# Assay results reported in US20240343823A1 (Ablynx, published 2024).
# Read-outs that look alike come from different tables or passages of the source.
# B1: A022600174 (other)
# chain: DVQLVESGGGVVQPGGSLRLSCVASGYVHKINFYGWYRQAPGKEREKVAHISIGDQTDYADSAKGRFTISRDESKNTVYLQMNSLRPEDTAAYYCRALSRIWPYDYWGQGTLVTVSSGGGGSEVQLVESGGGLVQPGGSLRLSCVASGFTFSSFAMTWVRRPPGKGLEWVATITNGGVTSYRDSVKGRFTISRDNAKNTLYLEMTSLNPEDTAVYICANARRTGPRAPTDIGSYRGQGTLVTVSSGGGGSGGGSEVQLVESGGGLVQPGGSLRLSCVASGSIFRSVFSSSTMEWYRQPPGKKRELVARIAPGDGTNYGALYADSVKGRFTISRDDAKKTVDLQMNSLKPEDTGVYFCASGVAWGQGTLVTVSSGGGGSGGGSEVQLVESGGGVVQPGGSLRLSCAASGFTFRSFGMSWVRQAPGKGPEWVSSISGSGSDTLYADSVKGRFTISRDNSKNTLYLQMNSLRPEDTALYYCTIGGSLSRSSQGTLVTVSSA
# B2: A022600426 (other)
# chain: DVQLVESGGGVVQPGGSLRLSCVASGYVHKINFYGWYRQAPGKEREKVAHISIGDQTDYADSAKGRFTISRDESKNTVYLQMNSLRPEDTAAYYCRALSRIWPYDYWGQGTLVTVSSGGGGSEVQLVESGGGVVQPGGSLRLSCAASGSIFRSVFSSSTMEWYRQAPGKKRELVARIAPGEGTYYGALYADSVKGRFTISRDNAKNTVYLQMNSLRPEDTALYYCASGVAWGQGTLVTVSSGGGGSGGGGSGGGGSGGGGSEVQLVESGGGVVQPGGSLRLSCAASGFTFSSFAMTWVRRPPGKGLEWVATITNKGVTSYADSVKGRFTISRDNAKNTLYLQMNSLRPEDTALYICANARRTGPRAPTDIGSYRGQGTLVTVSSGGGGSGGGSEVQLVESGGGVVQPGGSLRLSCAASGFTFRSFGMSWVRQAPGKGPEWVSSISGSGSDTLYADSVKGRFTISRDNSKNTLYLQMNSLRPEDTALYYCTIGGSLSRSSQGTLVTVSSA
# B3: A022600412 (other)
# chain: DVQLVESGGGVVQPGGSLRLSCVASGYVHKINFYGWYRQAPGKEREKVAHISIGDQTDYADSAKGRFTISRDESKNTVYLQMNSLRPEDTAAYYCRALSRIWPYDYWGQGTLVTVSSGGGGSEVQLVESGGGVVQPGGSLRLSCAASGFTFSSFAMTWVRRPPGKGLEWVATITNAGVTSYADSVKGRFTISRDNAKNTLYLQMNSLRPEDTALYICANARRTGPRAPTDIGSYRGQGTLVTVSSGGGGSGGGGSGGGGSGGGGSEVQLVESGGGVVQPGGSLRLSCAASGFTFRSFGMSWVRQAPGKGPEWVSSISGSGSDTLYADSVKGRFTISRDNSKNTLYLQMNSLRPEDTALYYCTIGGSLSRSSQGTLVTVSSA
# B4: A022600131 (other)
# chain: DVQLVESGGGVVQPGGSLRLSCVASGYVHKINFYGWYRQAPGKEREKVAHISIGDQTDYADSAKGRFTISRDESKNTVYLQMNSLRPEDTALYYCRALSRIWPYDYWGQGTLVTVSSGGGGSEVQLVESGGGLVQPGGSLRLSCVASGFTFSSFAMTWVRRPPGKGLEWVATITNGGVTSYRDSVKGRFTISRDNAKNTLYLEMTSLNPEDTAVYICANARRTGPRAPTDIGSYRGQGTLVTVSSGGGGSGGGGSGGGGSGGGGSEVQLVESGGGLVQPGGSLRLSCVASGSIFRSVFSSSTMEWYRQPPGKKRELVARIAPGDGTNYGALYADSVKGRFTISRDDAKKTVDLQMNSLKPEDTGVYFCASGVAWGQGTLVTVSSGGGGSGGGGSGGGGSGGGGSGGGGSGGGGSGGGGSEVQLVESGGGVVQPGGSLRLSCAASGFTFRSFGMSWVRQAPGKGPEWVSSISGSGSDTLYADSVKGRFTISRDNSKNTLYLQMNSLRPEDTALYYCTIGGSLSRSSQGTLVTVSSA
# B5: A022600175 (other)
# chain: DVQLVESGGGVVQPGGSLRLSCVASGYVHKINFYGWYRQAPGKEREKVAHISIGDQTDYADSAKGRFTISRDESKNTVYLQMNSLRPEDTAAYYCRALSRIWPYDYWGQGTLVTVSSGGGGSEVQLVESGGGLVQPGGSLRLSCVASGFTFSSFAMTWVRRPPGKGLEWVATITNGGVTSYRDSVKGRFTISRDNAKNTLYLEMTSLNPEDTAVYICANARRTGPRAPTDIGSYRGQGTLVTVSSGGGGSGGGSEVQLVESGGGLVQPGGSLRLSCVASGSIFRSVFSSSTMEWYRQPPGKKRELVARIAPGDGTNYGALYADSVKGRFTISRDDAKKTVDLQMNSLKPEDTGVYFCASGVAWGQGTLVTVSSGGGGSGGGGSGGGGSGGGGSGGGGSGGGGSGGGGSEVQLVESGGGVVQPGGSLRLSCAASGFTFRSFGMSWVRQAPGKGPEWVSSISGSGSDTLYADSVKGRFTISRDNSKNTLYLQMNSLRPEDTALYYCTIGGSLSRSSQGTLVTVSSA
# B6: A022600169 (other)
# chain: DVQLVESGGGLVQPGGSLRLSCVASGFTFSSFAMTWVRRPPGKGLEWVATITNGGVTSYRDSVKGRFTISRDNAKNTLYLEMTSLNPEDTAVYICANARRTGPRAPTDIGSYRGQGTLVTVSSGGGGSEVQLVESGGGVVQPGGSLRLSCVASGYVHKINFYGWYRQAPGKEREKVAHISIGDQTDYADSAKGRFTISRDESKNTVYLQMNSLRPEDTAAYYCRALSRIWPYDYWGQGTLVTVSSGGGGSEVQLVESGGGLVQPGGSLRLSCVASGSIFRSVFSSSTMEWYRQPPGKKRELVARIAPGDGTNYGALYADSVKGRFTISRDDAKKTVDLQMNSLKPEDTGVYFCASGVAWGQGTLVTVSSGGGGSGGGGSGGGGSGGGGSGGGGSGGGGSGGGGSEVQLVESGGGVVQPGGSLRLSCAASGFTFRSFGMSWVRQAPGKGPEWVSSISGSGSDTLYADSVKGRFTISRDNSKNTLYLQMNSLRPEDTALYYCTIGGSLSRSSQGTLVTVSSA
# B7: A022600172 (other)
# chain: DVQLVESGGGVVQPGGSLRLSCVASGYVHKINFYGWYRQAPGKEREKVAHISIGDQTDYADSAKGRFTISRDESKNTVYLQMNSLRPEDTAAYYCRALSRIWPYDYWGQGTLVTVSSGGGGSEVQLVESGGGLVQPGGSLRLSCVASGFTFSSFAMTWVRRPPGKGLEWVATITNGGVTSYRDSVKGRFTISRDNAKNTLYLEMTSLNPEDTAVYICANARRTGPRAPTDIGSYRGQGTLVTVSSGGGGSGGGSEVQLVESGGGVVQPGGSLRLSCAASGFTFRSFGMSWVRQAPGKGPEWVSSISGSGSDTLYADSVKGRFTISRDNSKNTLYLQMNSLRPEDTALYYCTIGGSLSRSSQGTLVTVSSGGGGSGGGSEVQLVESGGGLVQPGGSLRLSCVASGSIFRSVFSSSTMEWYRQPPGKKRELVARIAPGDGTNYGALYADSVKGRFTISRDDAKKTVDLQMNSLKPEDTGVYFCASGVAWGQGTLVTVSSA
# Legend:
# Test in all cases: cell-based or functional assay
# [1] = target: T1, human GPC3 on tumor cell lines (HepG2, Huh-7, NCI-H661, MKN-45, NCI-H23, BxPC-3, NCI-H292) (human, UniProt P51654 25-554)
# [2] = target: T1, human GPC3 on tumor cell lines (HepG2, …); remark: listed apart in the source
# [3] = target: T1, human GPC3 on tumor cell lines (HepG2, …); remark: listed apart in the source
# [4] = target: T1, human GPC3 on tumor cell lines (HepG2, …); remark: listed apart in the source
# [5] = target: T1, human GPC3 on tumor cell lines (HepG2, …); remark: listed apart in the source
binder,measurement,setting,value
B1,HepG2 on Incucyte IC50,[1],0.673 nM
same,HepG2 on Incucyte Max % killing,[1],96%
same,Huh7 on xCELLigence IC50,[1],0.0626 nM
same,Huh7 on xCELLigence Max % killing,[1],99%
same,HepG2 on Incucyte IC50,[2],0.673 nM
same,HepG2 on Incucyte Max % killing,[2],96%
same,Huh7 on xCELLigence IC50,[2],0.0626 nM
same,Huh7 on xCELLigence Max % killing,[2],99%
B2,"IC50 (M) BxPC-3, xCELLigence human TDC assay",[3],> 1e-07 M
same,"IC50 (M) HepG2, xCELLigence human TDC assay",[3],1.25e-10 M
same,"IC50 (M) Huh-7, xCELLigence human TDC assay",[3],1.09e-10 M
same,"IC50 (M) NCI-H23, xCELLigence human TDC assay",[3],> 1e-07 M
same,"IC50 (M) NCI-H661, xCELLigence human TDC assay",[3],2.64e-10 M
B3,"IC50 (M) BxPC-3, xCELLigence human TDC assay",[3],> 1e-07 M
same,"IC50 (M) HepG2, xCELLigence human TDC assay",[3],3.82e-10 M
same,"IC50 (M) Huh-7, xCELLigence human TDC assay",[3],1.53e-09 M
same,"IC50 (M) NCI-H661, xCELLigence human TDC assay",[3],6.18e-10 M
B4,"IC50 (M), Incucyte human TDC HepG2-Nuclight green assay",[4],4.44e-10 M
same,"Max % Killing, Incucyte human TDC HepG2-Nuclight green assay",[4],94%
B5,HepG2 on Incucyte IC50,[1],0.527 nM
same,HepG2 on Incucyte Max % killing,[1],96%
same,Huh7 on xCELLigence IC50,[1],0.0586 nM
same,Huh7 on xCELLigence Max % killing,[1],99%
same,HepG2 on Incucyte IC50,[5],0.527 nM
same,HepG2 on Incucyte Max % killing,[5],96%
same,Huh7 on xCELLigence IC50,[5],0.0586 nM
same,Huh7 on xCELLigence Max % killing,[5],99%
B6,HepG2 on Incucyte IC50,[2],0.641 nM
same,HepG2 on Incucyte Max % killing,[2],81%
same,Huh7 on xCELLigence IC50,[2],1.02 nM
same,Huh7 on xCELLigence Max % killing,[2],61%
B7,HepG2 on Incucyte IC50,[2],0.601 nM
same,HepG2 on Incucyte Max % killing,[2],81%
same,Huh7 on xCELLigence IC50,[2],0.067 nM
same,Huh7 on xCELLigence Max % killing,[2],90%
